Test results reported in the RNAGym collection of RNA variant scans (doi:10.1073/pnas.2313332121).

B1: TPR t1 (parent)
chain: GACCAAUCUGCCCUCAGAGCUCGAGAACAUCUUCGGAUGCAGAGGAGGCAGGCUUCGGUGGCGCGAUAGCGCCAACGUCCUCAACCUCCAAUGCAUCCCACCACAUGAUGAUGCCUGAAGAGCCUUGGUUUUUUG

Variants of: B1
Assay: polymerase ribozyme fitness, log enrichment relative to wild type (log ratio); higher = more active; in vitro selection for triplet polymerase activity
Summary of the method: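 Genotype fitness is the logarithm of its enrichment divided by wild-type enrichment, using inverse-variance-weighted averages of replicates. That logarithm is base 2. Enrichment was measured by Illumina sequencing of input and output libraries from one triplicate in vitro selection round, with frozen incubation at −7 °C, on PCR-built, transcribed mutant libraries of each subunit of a heterodimeric triplet polymerase ribozyme, retaining genotypes with ≥10 input reads and ≥1 read per output.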

Variant	polymerase ribozyme fitness (log ratio)
C4U C82U	-0.905
C4U C72G	-0.855
C4U C72U	-0.857
C4U A43U G69C	-4.04
A5G A50U G63A G117A	-6.03
C4U C49U C97U G128U	-2.93
A5G	-0.0211
A5C	-0.52
C4U G63A U116G A121U G127U	-4.48
A5C U54C C82G C104A U131C	-1.29
A5C A46U U106C	-1.72
A5C C12A A43G G60C	-4.18
A5C A41U	-2.41
A5G C12G G71C A121G	0.0981
A5C A90U	-2.01
C4U C34G	-5.92
A5C C15U G60C U96A	-2.98
C4U C88A	-0.437
A5G C34G G69U C82G	-2.92
A5C G10C A43C C124G	-1.41
C4U C15U G57U A100C	-4.18

Variant	polymerase ribozyme fitness (log ratio)
C4U C22G G48A C89A C124A	-3.16
A5C G17U A50C C88A	-4.51
A5C G58A C89A C94G C101U	-5.27
C4U G17C G69U	-2.09
A5C C15A	-1.17
C4U G45C	-2.12
A5C U32C C53U G57A C85A	-3.78
C4U G10A U21A G44A A83U	-1.59
A5G A18G C79A U81C C89U G93U G120C C124U	-6.53
C4U G69U C72G C124G	0.464
C4U C8A C123G	0.914
A5C U7C G69U C85A U92C	-3.85
A5C A29U A121G	-0.781
A5G C22G C73G G93U G110A	-6.4
C4U C79A U92C	-3.5
A5G A18U A103U C114A G120U	-3.91
A5G C13U C70U C94G	-1.73
A5C G71C C89U G117U U131C	-5.27
C4U G71U C97U C123A	0.307
A5C C11G C85G	-1.61
A5C A83G U106A C123U G135A	-1.09

Variant	polymerase ribozyme fitness (log ratio)
A5C A43C G45A C56A A91G G113A	-4.37
C4U C15A G45C G61U C72A	-2.72
C4G U78C U112G	-1.83
C4U C56A C114A C124U	-3.31
A5C C13U C79A C114A	-2.82
C4U A74G C89G U112G	-2.61
C4U G52U G128U	-2.66
C4U C70U C85G C86U	-2.03
C4U C70A A121C U131A	-0.259
A5C G17A G127U	-4.89
A5G C82G	-0.685
A5C C13U A46C C64U U78A C79G G113C	-5.7
C4U C102U C124U	-0.637
A5C G60A G61A C114A	-4.47
C4U A5U U59G C64U	-3.75
A5C C13A C34A A83U A108G C124A	-5.47
A5G C49G	-1.85
A5C C72U	-1.39
A5G C12A C72G U87A C115G U131C	-3.53
A5C C86U	-0.23
A5C U109A	-4.8

Variant	polymerase ribozyme fitness (log ratio)
A5C C73G	-0.545
C4U G10A G52U U81G C123G U125A	-4.99
C4U G71U C114G U132A	-3.02
C4U C62U A91U G120A	-2.44
C4U C12U C13U C124G	1.84
C4U G44U	-1.74
A5C C8A C28U U54C A84G	-3.62
C4U U96A U106A G122A	-0.892
A5C C72A C88A	-1.74
A5C U92G	-4.05
A5C G117U	-3.58
C4U C12U	0.148
C4U G117A	-2.18
A5C C15A C62G A100U G117U	-4.14
C4U C20A	-2.6
C4U C53U G69A U78A C86U	-3.99
A5G C20U C53A G58A C99U	-4.64
C4U G10U	-0.515
C4U A68G	-3.11
C4U G47A C56U C70A C101U A119G G120U G127A	-3.88
